The record followed here is PMC1851384, “Involvement of maternal embryonic leucine zipper kinase (MELK) in mammary carcinogenesis through interaction with Bcl-G, a pro-apoptotic member of the Bcl-2 family” (Breast Cancer Research, 2007).

The target in the experiment is T1, His-tagged wild-type MELK recombinant protein (human, UniProt Q14680-1 1-651).
T1 construct: pET21a usually adds a C-terminal His6 tag; also called WT-MELK; His-tagged WT-MELK; source: E. coli BL21 codon-plus (DE3) RIL, purified (Ni-NTA superflow, nondenaturing)
T1 sequence (Q14680 whole entry): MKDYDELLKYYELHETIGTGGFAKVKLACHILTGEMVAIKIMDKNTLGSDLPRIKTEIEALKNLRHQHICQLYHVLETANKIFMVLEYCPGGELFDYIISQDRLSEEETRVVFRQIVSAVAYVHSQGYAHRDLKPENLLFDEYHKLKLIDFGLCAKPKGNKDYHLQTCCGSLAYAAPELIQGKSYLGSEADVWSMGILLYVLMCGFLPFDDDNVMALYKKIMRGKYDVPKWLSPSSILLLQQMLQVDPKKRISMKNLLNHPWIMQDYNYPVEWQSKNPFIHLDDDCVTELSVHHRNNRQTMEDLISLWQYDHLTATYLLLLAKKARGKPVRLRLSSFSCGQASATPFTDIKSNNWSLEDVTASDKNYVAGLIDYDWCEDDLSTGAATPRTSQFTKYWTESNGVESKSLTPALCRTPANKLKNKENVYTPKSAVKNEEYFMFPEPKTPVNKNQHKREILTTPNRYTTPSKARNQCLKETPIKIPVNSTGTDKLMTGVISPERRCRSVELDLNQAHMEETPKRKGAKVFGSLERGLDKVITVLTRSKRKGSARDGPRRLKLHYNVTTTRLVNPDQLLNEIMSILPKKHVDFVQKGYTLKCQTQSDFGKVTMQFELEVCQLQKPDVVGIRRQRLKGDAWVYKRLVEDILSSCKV
In words: pull-down; in vitro binding assay: 10 ug His-tagged MELK held by anti-6XHis antibody on protein G Sepharose; 5 ug Bcl-GL recombinant protein in 500 ul binding buffer (50 mM Tris, 75 mM NaCl, 10 mM MgCl2, 1 mM DTT, 2% BSA, 100 uM ATP), 30 minutes at 4°C; blot with anti-Bcl-GL. As to conditions: both partners purified.

B1: Bcl-GL recombinant protein (GST removed) (natural protein, human, UniProt Q9BZR8-1 1-327, looked up)
chain: MCSTSGCDLEEIPLDDDDLNTIEFKILAYYTRHHVFKSTPALFSPKLLRTRSLSQRGLGNCSANESWTEVSWPCRNSQSSEKAINLGKKKSSWKAFFGVVEKEDSQSTPAKVSAQGQRTLEYQDSHSQQWSRCLSNVEQCLEHEAVDPKVISIANRVAEIVYSWPPPQATQAGGFKSKEIFVTEGLSFQLQGHVPVASSSKKDEEEQILAKIVELLKYSGDQLERKLKKDKALMGHFQDGLSYSVFKTITDQVLMGVDPRGESEVKAQGFKAALVIDVTAKLTAIDNHPMNRVLGFGTKYLKENFSPWIQQHGGWEKILGISHEEVD
notes: source: E. coli BL21 codon-plus RIL, purified (Glutathione Sepharose 4B), GST removed with PreScission protease
For B1, the binding result was “binds”.
